As usually defined, the EC50 is the midpoint of the concentration-response curve.

Our source for the EC50 and Max effect/effect 1 µM values is patent US20250171562A1.

B1: NIgG4E3A1(G4S)1 (Fc fusion)
chain 1: DVQLQESGGGLVQAGGSLRLACAASGRTLSSYVVSWFRQAPGKERKFVAAITWSGLSTTYLDSVQGRFTISRDNTKDTVYLQMNSLKPQDTAIYYCAAGPNIPSILRTRESEYAYWGQGTQVTVSGGGGSGPPCPPCPAPEFLGGPSVFLFPPKPKDTLMISRTPEVTCVVVDVSQEDPEVQFNWYVDGVEVHNAKTKPREEQFNSTYRVVSVLTVLHQDWLNGKEYKCKVSNKGLPSSIEKTISKAKGQPREPQVYTLPPCQEEMTKNQVSLWCLVKGFYPSDIAVEWESNGQPENNYKTTPPVLDSDGSFFLYSRLTVDKSRWQEGNVFSCSVMHEALHNHYTQKSLSLSLGK
chain 2: EVQLLESGGGLVQPGGSLRLSCAASGFTFGNYDMAWVRQAPGKRPEWVSSIDTGGDITHYADSVKGRFTISRDNAKNTLYLQMNSLRPEDTAVYWCATDEEYALGPNEFDYYGQGTLVTVSSGGGGSGPPCPPCPAPEFLGGPSVFLFPPKPKDTLMISRTPEVTCVVVDVSQEDPEVQFNWYVDGVEVHNAKTKPREEQFNSTYRVVSVLTVLHQDWLNGKEYKCKVSNKGLPSSIEKTISKAKGQPREPQVCTLPPSQEEMTKNQVSLSCAVKGFYPSDIAVEWESNGQPENNYKTTPPVLDSDGSFFLVSRLTVDKSRWQEGNVFSCSVMHEALHNHYTQKSLSLSLGK
B2: NIgG4E3A1(RS) (Fc fusion)
chain 1: DVQLQESGGGLVQAGGSLRLACAASGRTLSSYVVSWFRQAPGKERKFVAAITWSGLSTTYLDSVQGRFTISRDNTKDTVYLQMNSLKPQDTAIYYCAAGPNIPSILRTRESEYAYWGQGTQVTVSRSGPPCPPCPAPEFLGGPSVFLFPPKPKDTLMISRTPEVTCVVVDVSQEDPEVQFNWYVDGVEVHNAKTKPREEQFNSTYRVVSVLTVLHQDWLNGKEYKCKVSNKGLPSSIEKTISKAKGQPREPQVYTLPPCQEEMTKNQVSLWCLVKGFYPSDIAVEWESNGQPENNYKTTPPVLDSDGSFFLYSRLTVDKSRWQEGNVFSCSVMHEALHNHYTQKSLSLSLGK
chain 2: EVQLLESGGGLVQPGGSLRLSCAASGFTFGNYDMAWVRQAPGKRPEWVSSIDTGGDITHYADSVKGRFTISRDNAKNTLYLQMNSLRPEDTAVYWCATDEEYALGPNEFDYYGQGTLVTVSSRSGPPCPPCPAPEFLGGPSVFLFPPKPKDTLMISRTPEVTCVVVDVSQEDPEVQFNWYVDGVEVHNAKTKPREEQFNSTYRVVSVLTVLHQDWLNGKEYKCKVSNKGLPSSIEKTISKAKGQPREPQVCTLPPSQEEMTKNQVSLSCAVKGFYPSDIAVEWESNGQPENNYKTTPPVLDSDGSFFLVSRLTVDKSRWQEGNVFSCSVMHEALHNHYTQKSLSLSLGK
B3: NIgG4E3A1(G4S)2 (Fc fusion)
chain 1: DVQLQESGGGLVQAGGSLRLACAASGRTLSSYVVSWFRQAPGKERKFVAAITWSGLSTTYLDSVQGRFTISRDNTKDTVYLQMNSLKPQDTAIYYCAAGPNIPSILRTRESEYAYWGQGTQVTVSGGGGSGGGGSGPPCPPCPAPEFLGGPSVFLFPPKPKDTLMISRTPEVTCVVVDVSQEDPEVQFNWYVDGVEVHNAKTKPREEQFNSTYRVVSVLTVLHQDWLNGKEYKCKVSNKGLPSSIEKTISKAKGQPREPQVYTLPPCQEEMTKNQVSLWCLVKGFYPSDIAVEWESNGQPENNYKTTPPVLDSDGSFFLYSRLTVDKSRWQEGNVFSCSVMHEALHNHYTQKSLSLSLGK
chain 2: EVQLLESGGGLVQPGGSLRLSCAASGFTFGNYDMAWVRQAPGKRPEWVSSIDTGGDITHYADSVKGRFTISRDNAKNTLYLQMNSLRPEDTAVYWCATDEEYALGPNEFDYYGQGTLVTVSSGGGGSGGGGSGPPCPPCPAPEFLGGPSVFLFPPKPKDTLMISRTPEVTCVVVDVSQEDPEVQFNWYVDGVEVHNAKTKPREEQFNSTYRVVSVLTVLHQDWLNGKEYKCKVSNKGLPSSIEKTISKAKGQPREPQVCTLPPSQEEMTKNQVSLSCAVKGFYPSDIAVEWESNGQPENNYKTTPPVLDSDGSFFLVSRLTVDKSRWQEGNVFSCSVMHEALHNHYTQKSLSLSLGK
B4: CIgG4E3A1(G4S)2 (Fc fusion)
chain 1: GPPCPPCPAPEFLGGPSVFLFPPKPKDTLMISRTPEVTCVVVDVSQEDPEVQFNWYVDGVEVHNAKTKPREEQFNSTYRVVSVLTVLHQDWLNGKEYKCKVSNKGLPSSIEKTISKAKGQPREPQVYTLPPCQEEMTKNQVSLWCLVKGFYPSDIAVEWESNGQPENNYKTTPPVLDSDGSFFLYSRLTVDKSRWQEGNVFSCSVMHEALHNHYTQKSLSLSLGKGGGGSGGGGSDVQLQESGGGLVQAGGSLRLACAASGRTLSSYVVSWFRQAPGKERKFVAAITWSGLSTTYLDSVQGRFTISRDNTKDTVYLQMNSLKPQDTAIYYCAAGPNIPSILRTRESEYAYWGQGTQVTVS
chain 2: GPPCPPCPAPEFLGGPSVFLFPPKPKDTLMISRTPEVTCVVVDVSQEDPEVQFNWYVDGVEVHNAKTKPREEQFNSTYRVVSVLTVLHQDWLNGKEYKCKVSNKGLPSSIEKTISKAKGQPREPQVCTLPPSQEEMTKNQVSLSCAVKGFYPSDIAVEWESNGQPENNYKTTPPVLDSDGSFFLVSRLTVDKSRWQEGNVFSCSVMHEALHNHYTQKSLSLSLGKGGGGSGGGGSEVQLLESGGGLVQPGGSLRLSCAASGFTFGNYDMAWVRQAPGKRPEWVSSIDTGGDITHYADSVKGRFTISRDNAKNTLYLQMNSLRPEDTAVYWCATDEEYALGPNEFDYYGQGTLVTVSS
B5: CIgG4E3A1(G4S)1 (Fc fusion)
chain 1: GPPCPPCPAPEFLGGPSVFLFPPKPKDTLMISRTPEVTCVVVDVSQEDPEVQFNWYVDGVEVHNAKTKPREEQFNSTYRVVSVLTVLHQDWLNGKEYKCKVSNKGLPSSIEKTISKAKGQPREPQVYTLPPCQEEMTKNQVSLWCLVKGFYPSDIAVEWESNGQPENNYKTTPPVLDSDGSFFLYSRLTVDKSRWQEGNVFSCSVMHEALHNHYTQKSLSLSLGKGGGGSDVQLQESGGGLVQAGGSLRLACAASGRTLSSYVVSWFRQAPGKERKFVAAITWSGLSTTYLDSVQGRFTISRDNTKDTVYLQMNSLKPQDTAIYYCAAGPNIPSILRTRESEYAYWGQGTQVTVS
chain 2: GPPCPPCPAPEFLGGPSVFLFPPKPKDTLMISRTPEVTCVVVDVSQEDPEVQFNWYVDGVEVHNAKTKPREEQFNSTYRVVSVLTVLHQDWLNGKEYKCKVSNKGLPSSIEKTISKAKGQPREPQVCTLPPSQEEMTKNQVSLSCAVKGFYPSDIAVEWESNGQPENNYKTTPPVLDSDGSFFLVSRLTVDKSRWQEGNVFSCSVMHEALHNHYTQKSLSLSLGKGGGGSEVQLLESGGGLVQPGGSLRLSCAASGFTFGNYDMAWVRQAPGKRPEWVSSIDTGGDITHYADSVKGRFTISRDNAKNTLYLQMNSLRPEDTAVYWCATDEEYALGPNEFDYYGQGTLVTVSS
B6: NIgG4E3A1(G4S)3 (Fc fusion)
chain 1: DVQLQESGGGLVQAGGSLRLACAASGRTLSSYVVSWFRQAPGKERKFVAAITWSGLSTTYLDSVQGRFTISRDNTKDTVYLQMNSLKPQDTAIYYCAAGPNIPSILRTRESEYAYWGQGTQVTVSGGGGSGGGGSGGGGSGPPCPPCPAPEFLGGPSVFLFPPKPKDTLMISRTPEVTCVVVDVSQEDPEVQFNWYVDGVEVHNAKTKPREEQFNSTYRVVSVLTVLHQDWLNGKEYKCKVSNKGLPSSIEKTISKAKGQPREPQVYTLPPCQEEMTKNQVSLWCLVKGFYPSDIAVEWESNGQPENNYKTTPPVLDSDGSFFLYSRLTVDKSRWQEGNVFSCSVMHEALHNHYTQKSLSLSLGK
chain 2: EVQLLESGGGLVQPGGSLRLSCAASGFTFGNYDMAWVRQAPGKRPEWVSSIDTGGDITHYADSVKGRFTISRDNAKNTLYLQMNSLRPEDTAVYWCATDEEYALGPNEFDYYGQGTLVTVSSGGGGSGGGGSGGGGSGPPCPPCPAPEFLGGPSVFLFPPKPKDTLMISRTPEVTCVVVDVSQEDPEVQFNWYVDGVEVHNAKTKPREEQFNSTYRVVSVLTVLHQDWLNGKEYKCKVSNKGLPSSIEKTISKAKGQPREPQVCTLPPSQEEMTKNQVSLSCAVKGFYPSDIAVEWESNGQPENNYKTTPPVLDSDGSFFLVSRLTVDKSRWQEGNVFSCSVMHEALHNHYTQKSLSLSLGK
B7: CIgG4E3A1(RS) (Fc fusion)
chain 1: GPPCPPCPAPEFLGGPSVFLFPPKPKDTLMISRTPEVTCVVVDVSQEDPEVQFNWYVDGVEVHNAKTKPREEQFNSTYRVVSVLTVLHQDWLNGKEYKCKVSNKGLPSSIEKTISKAKGQPREPQVYTLPPCQEEMTKNQVSLWCLVKGFYPSDIAVEWESNGQPENNYKTTPPVLDSDGSFFLYSRLTVDKSRWQEGNVFSCSVMHEALHNHYTQKSLSLSLGKRSDVQLQESGGGLVQAGGSLRLACAASGRTLSSYVVSWFRQAPGKERKFVAAITWSGLSTTYLDSVQGRFTISRDNTKDTVYLQMNSLKPQDTAIYYCAAGPNIPSILRTRESEYAYWGQGTQVTVS
chain 2: GPPCPPCPAPEFLGGPSVFLFPPKPKDTLMISRTPEVTCVVVDVSQEDPEVQFNWYVDGVEVHNAKTKPREEQFNSTYRVVSVLTVLHQDWLNGKEYKCKVSNKGLPSSIEKTISKAKGQPREPQVCTLPPSQEEMTKNQVSLSCAVKGFYPSDIAVEWESNGQPENNYKTTPPVLDSDGSFFLVSRLTVDKSRWQEGNVFSCSVMHEALHNHYTQKSLSLSLGKRSEVQLLESGGGLVQPGGSLRLSCAASGFTFGNYDMAWVRQAPGKRPEWVSSIDTGGDITHYADSVKGRFTISRDNAKNTLYLQMNSLRPEDTAVYWCATDEEYALGPNEFDYYGQGTLVTVSS
B8: CIgG4E2A1(G4S)3 (Fc fusion)
chain 1: GPPCPPCPAPEFLGGPSVFLFPPKPKDTLMISRTPEVTCVVVDVSQEDPEVQFNWYVDGVEVHNAKTKPREEQFNSTYRVVSVLTVLHQDWLNGKEYKCKVSNKGLPSSIEKTISKAKGQPREPQVYTLPPCQEEMTKNQVSLWCLVKGFYPSDIAVEWESNGQPENNYKTTPPVLDSDGSFFLYSRLTVDKSRWQEGNVFSCSVMHEALHNHYTQKSLSLSLGKGGGGSGGGGSGGGGSDVQLQESGGGLVQAGGSLRLSCAASGRTISRYAVGWFRRPPAKEREFIGINWSGGSTTYADSAEGRFIISRDNAKNTVYLQMNSLKPEDTAVYYCAVPSVLVQGGISNPSQYDYWGQGTQVTVS
chain 2: GPPCPPCPAPEFLGGPSVFLFPPKPKDTLMISRTPEVTCVVVDVSQEDPEVQFNWYVDGVEVHNAKTKPREEQFNSTYRVVSVLTVLHQDWLNGKEYKCKVSNKGLPSSIEKTISKAKGQPREPQVCTLPPSQEEMTKNQVSLSCAVKGFYPSDIAVEWESNGQPENNYKTTPPVLDSDGSFFLVSRLTVDKSRWQEGNVFSCSVMHEALHNHYTQKSLSLSLGKGGGGSGGGGSGGGGSEVQLLESGGGLVQPGGSLRLSCAASGFTFGNYDMAWVRQAPGKRPEWVSSIDTGGDITHYADSVKGRFTISRDNAKNTLYLQMNSLRPEDTAVYWCATDEEYALGPNEFDYYGQGTLVTVSS

The target in the assay is mixture of three Der p 2 specific recombinant human IgE clones H10, H12, P4E (human) (UniProt P01854). In words: RBL-SX38 IgE displacement, FACS.
Chain of mixture of three Der p 2 specific recombinant human IgE clones H10, H12, P4E (human) (P01854 other isoform, or with tags, fused parts or gaps): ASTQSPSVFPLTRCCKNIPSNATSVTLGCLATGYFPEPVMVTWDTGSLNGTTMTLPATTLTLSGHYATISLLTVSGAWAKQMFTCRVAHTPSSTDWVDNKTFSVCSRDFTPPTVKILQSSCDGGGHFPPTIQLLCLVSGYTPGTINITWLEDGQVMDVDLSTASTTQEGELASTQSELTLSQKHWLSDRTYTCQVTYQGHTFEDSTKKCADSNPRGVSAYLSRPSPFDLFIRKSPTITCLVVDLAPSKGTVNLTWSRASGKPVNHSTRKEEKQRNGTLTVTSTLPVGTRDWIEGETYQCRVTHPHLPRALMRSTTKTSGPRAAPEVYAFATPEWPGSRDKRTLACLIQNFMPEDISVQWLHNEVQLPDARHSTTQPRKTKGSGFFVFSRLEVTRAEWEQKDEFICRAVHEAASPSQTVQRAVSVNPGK
Turning to B1, the EC50 stood at 2 nM and the Max effect/effect 1 µM is 99%.

With B2, the EC50 was found to be 2.2 nM and the Max effect/effect 1 µM was found to be 100%.

Take B3: the EC50 turned out to be 2.1 nM and the Max effect/effect 1 µM came out at 99%.

For the molecule B4, the EC50 came out at 172 nM and the Max effect/effect 1 µM was 94%.

For the molecule B5, the EC50 is 277 nM and the Max effect/effect 1 µM came out at 76%.

On to B6, for which the 50% effective concentration (EC50) turned out to be 2.2 nM and the Max effect/effect 1 µM amounted to 97%.

Regarding B7, the Max effect/effect 1 µM was 21%.

For B8, the EC50 turned out to be 532 nM and the Max effect/effect 1 µM amounted to 45%.
